Data on 19 molecules can be found in US20250276075A1, “METHODS OF TREATING AXL-EXPRESSING CANCERS WITH ANTI-AXL ANTIBODIES, ANTIBODY FRAGMENTS AND THEIR IMMUNOCONJUGATES” (BIOATLA, INC., priority 2020, published 2025).

Residue numbers refer to the chain shown, from its start. Names and notes keep the numbering of the source.

T1: Axl (Homo sapiens, UniProt P30530)
T1 sequence (P30530 26-451 limits assumed): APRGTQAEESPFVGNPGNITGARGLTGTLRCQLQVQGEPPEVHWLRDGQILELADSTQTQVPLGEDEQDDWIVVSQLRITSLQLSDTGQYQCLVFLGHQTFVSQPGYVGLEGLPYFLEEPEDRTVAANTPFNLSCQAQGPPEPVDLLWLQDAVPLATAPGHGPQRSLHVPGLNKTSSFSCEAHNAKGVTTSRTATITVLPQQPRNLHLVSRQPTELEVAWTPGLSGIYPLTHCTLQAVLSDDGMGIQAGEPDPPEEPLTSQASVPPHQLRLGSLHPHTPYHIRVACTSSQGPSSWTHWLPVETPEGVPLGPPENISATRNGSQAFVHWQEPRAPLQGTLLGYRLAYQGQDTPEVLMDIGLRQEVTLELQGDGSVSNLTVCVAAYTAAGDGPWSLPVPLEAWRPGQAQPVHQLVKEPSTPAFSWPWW

B1: LC-A032L (antibody, V domains shown)
VH: EVQLVQSGAEVKKPGATVKISCKVSGYSFTGHTMNWIRQPPGKGLEWIGLIKPSNGGTSYNQKFKGRVTISADKSISTAYLQWSSLKASDTAMYYCAHGHYESYFAMDYWGQGTLVTVSS
VL: DIQMTQSPSSLSASVGDRVTITCKASQDVSSLVAWYQQKPGQAPRLLIYWASTRHTGVPSRFSGSGSGTEFTLTISSLQPDDFATYYCQEHFSTPLTFGQGTKVEIK
B2: LC-A051N (antibody, V domains shown)
VH: B1 VH
VL: B1 VL with L32A, A51N
B3: LC-F092C (antibody, V domains shown)
VH: B1 VH
VL: B1 VL with L32A, F92C
B4: LC-W050F (antibody, V domains shown)
VH: B1 VH
VL: B1 VL with L32A, W50F
B5: LC-F092S (antibody, V domains shown)
VH: B1 VH
VL: B1 VL with L32A, F92S
B6: LC-A032M (antibody, V domains shown)
VH: B1 VH
VL: B1 VL with L32M
B7: LC-F092D (antibody, V domains shown)
VH: B1 VH
VL: B1 VL with L32A, F92D
B8: LC-A034D (antibody, V domains shown)
VH: B1 VH
VL: B1 VL with L32A, A34D
B9: LC-F092G (antibody, V domains shown)
VH: B1 VH
VL: B1 VL with L32A, F92G
B10: LC-F092E (antibody, V domains shown)
VH: B1 VH
VL: B1 VL with L32A, F92E
B11: LC-A051P (antibody, V domains shown)
VH: B1 VH
VL: B1 VL with L32A, A51P
B12: LC-T094C (antibody, V domains shown)
VH: B1 VH
VL: B1 VL with L32A, T94C
B13: LC-A051I (antibody, V domains shown)
VH: B1 VH
VL: B1 VL with L32A, A51I
B14: HC-E102R (antibody, V domains shown)
VH: B1 VH with E102R
VL: B1 VL with L32A
B15: LC-A034N (antibody, V domains shown)
VH: B1 VH
VL: B1 VL with L32A, A34N
B16: LC-P095C (antibody, V domains shown)
VH: B1 VH
VL: B1 VL with L32A, P95C
B17: LC-F092N (antibody, V domains shown)
VH: B1 VH
VL: B1 VL with L32A, F92N
B18: LC-A034Q (antibody, V domains shown)
VH: B1 VH
VL: B1 VL with L32A, A34Q
B19: LC-P095A (antibody, V domains shown)
VH: B1 VH
VL: B1 VL with L32A, P95A

The first assay addresses Axl (UniProt P30530). Description: ELISA, 1:3 dilution.
Details: not given
Consider B1, for which the Affinity ELISA CPE mutant ratio (1:3, pH 6.0/7.4) is 1.98.
B2: the Affinity ELISA CPE mutant ratio (1:3, pH 6.0/7.4) amounted to 1.41.
For the molecule B3, the Affinity ELISA CPE mutant ratio (1:3, pH 6.0/7.4) came to 3.86.
For B4, the Affinity ELISA CPE mutant ratio (1:3, pH 6.0/7.4) amounted to 2.25.
For B5, the Affinity ELISA CPE mutant ratio (1:3, pH 6.0/7.4) was determined as 3.18.
Take B6: the Affinity ELISA CPE mutant ratio (1:3, pH 6.0/7.4) worked out at 4.76.
Turning to B7, the Affinity ELISA CPE mutant ratio (1:3, pH 6.0/7.4) was determined as 2.97.
As for B8, the Affinity ELISA CPE mutant ratio (1:3, pH 6.0/7.4) was 3.
For the molecule B9, the Affinity ELISA CPE mutant ratio (1:3, pH 6.0/7.4) stood at 3.69.
Same read-out and setting: with B10 the figure was 1.76; with B11, 1.92; with B12, 1.42.
For the molecule B13, the Affinity ELISA CPE mutant ratio (1:3, pH 6.0/7.4) was found to be 2.24.
Consider B14, for which the Affinity ELISA CPE mutant ratio (1:3, pH 6.0/7.4) is 3.7.
Same read-out and setting: with B15 the figure was 2.63.
Turning to B16, the Affinity ELISA CPE mutant ratio (1:3, pH 6.0/7.4) worked out at 2.35.
On to B17, for which the Affinity ELISA CPE mutant ratio (1:3, pH 6.0/7.4) worked out at 1.93.
Still for that read-out and setting: with B18 the figure was 2.
For the molecule B19, the Affinity ELISA CPE mutant ratio (1:3, pH 6.0/7.4) was 2.52.

For the next assay, the target named is Axl (UniProt P30530). Briefly: ELISA, 1:9 dilution.
Details: not given
As for B1, the Affinity ELISA CPE mutant ratio (1:9, pH 6.0/7.4) is 2.27.
Take B2: the Affinity ELISA CPE mutant ratio (1:9, pH 6.0/7.4) stood at 2.2.
As for B3, the Affinity ELISA CPE mutant ratio (1:9, pH 6.0/7.4) turned out to be 4.58.
Turning to B4, the Affinity ELISA CPE mutant ratio (1:9, pH 6.0/7.4) was determined as 3.5.
For the molecule B5, the Affinity ELISA CPE mutant ratio (1:9, pH 6.0/7.4) was 2.94.
For the molecule B6, the Affinity ELISA CPE mutant ratio (1:9, pH 6.0/7.4) was found to be 2.92.
With B7, the Affinity ELISA CPE mutant ratio (1:9, pH 6.0/7.4) was 2.94.
Still for that read-out and setting: with B8 the figure was 2.6; with B9, 4.76.
As to B10, the Affinity ELISA CPE mutant ratio (1:9, pH 6.0/7.4) came to 2.
The same measure, in the same setting: with B11 the figure was 1.57; with B12, 1.77.
Regarding B13, the Affinity ELISA CPE mutant ratio (1:9, pH 6.0/7.4) amounted to 2.14.
Consider B14, for which the Affinity ELISA CPE mutant ratio (1:9, pH 6.0/7.4) came out at 3.42.
Still for that read-out and setting: with B15 the figure was 2.4; with B16, 2.63.
As to B17, the Affinity ELISA CPE mutant ratio (1:9, pH 6.0/7.4) was determined as 2.
For B18, the Affinity ELISA CPE mutant ratio (1:9, pH 6.0/7.4) is 1.41.
On the same count and under the same terms, with B19 the figure was 2.99.

The target of a further assay is T1, Axl. Briefly: Affinity ELISA of CPE mutant antibodies for binding to Axl at pH 6.0 over pH 7.4. To be noted: heavy chain variable region mutants; 1:3 dilution. From the text: The DNA encoding the wild-type antibody was evolved to generate a mutant antibody library using Comprehensive Positional Evolution (CPE), which each position in the template antibody is randomized one at a time. Each mutant antibody in the library has only one single point mutation. The mutant antibodies in the library were generated by simultaneously screening for selective binding affinity to Axl at pH 6.0 over pH 7.4 by ELISA. Two mutant antibody dilutions were used: 1:3 and 1:9 dilutions. The mutant antibodies that have at least 1.5 ratio of binding affinity at pH 6.0 to at pH 7.4 under either 1:3 or 1:9 dilution are selected as conditionally active antibodies, with the single point mutations indicated in each of the heavy chain and light chain variable region (Tables 1 and 2).
A wild-type antibody to Axl was selected as the template antibody (with a heavy chain variable region of 063-hum10F10-HC in FIG. 1A and a light chain variable region of […]). The DNA encoding the wild-type antibody was evolved to generate a mutant antibody library using Comprehensive Positional Evolution (CPE), a method by which each position in the template antibody is randomized one at a time. Each mutant antibody in the library has only one single point mutation. The mutant antibodies in the library were generated by simultaneously screening for selective binding affinity to Axl at pH 6.0 over pH 7.4 as determined by ELISA.
Simultaneously, the expression level of the mutant antibodies was also optimized for the purpose of higher fields in a manufacturing process. The screening was done in serum using a FLAG tag because there were human antibodies in the serum which might cause false positives for the screening. The screening buffer was a carbonate buffer (Krebs buffer with ringer-standard buffer but different from PBS). […] Some of the selected mutant antibodies (scFv) were represented in FIG. 2 with their higher activity at pH 6.0 than at pH 7.4, while their activity ratios between pH 6.0 to pH 7.4 were at least 11 fold (FIG. 3).
For B14, the “Affinity ELISA CPE mutant ratio (1:3, pH 6.0/7.4)” value came to 3.701.

Still in this assay, the particulars now being: heavy chain variable region mutants; 1:9 dilution.
In the case of B14, the “Affinity ELISA CPE mutant ratio (1:9, pH 6.0/7.4)” value is given as 3.416.

The same assay, now with this note: light chain variable region mutants; 1:3 dilution.
With B1, the “Affinity ELISA CPE mutant ratio (1:3, pH 6.0/7.4)” value is 1.982.
The same measure, in the same setting: with B2 the figure was 1.412; with B3, 3.862.
On the same count and under the same terms, with B4 the figure was 2.245.
For the molecule B5, the “Affinity ELISA CPE mutant ratio (1:3, pH 6.0/7.4)” value is listed as 3.179.
B6: the “Affinity ELISA CPE mutant ratio (1:3, pH 6.0/7.4)” value stood at 4.757.
For the molecule B7, the “Affinity ELISA CPE mutant ratio (1:3, pH 6.0/7.4)” value is given as 2.969.
On to B8, for which the “Affinity ELISA CPE mutant ratio (1:3, pH 6.0/7.4)” value came out at 3.005.
Turning to B9, the “Affinity ELISA CPE mutant ratio (1:3, pH 6.0/7.4)” value was found to be 3.692.
Same read-out and setting: with B10 the figure was 1.759; with B11, 1.920; with B12, 1.423.
As to B13, the “Affinity ELISA CPE mutant ratio (1:3, pH 6.0/7.4)” value stood at 2.241.
Consider B15, for which the “Affinity ELISA CPE mutant ratio (1:3, pH 6.0/7.4)” value amounted to 2.626.
Regarding B16, the “Affinity ELISA CPE mutant ratio (1:3, pH 6.0/7.4)” value was 2.350.
On to B17, for which the “Affinity ELISA CPE mutant ratio (1:3, pH 6.0/7.4)” value amounted to 1.933.
For B18, the “Affinity ELISA CPE mutant ratio (1:3, pH 6.0/7.4)” value was found to be 1.999.
B19: the “Affinity ELISA CPE mutant ratio (1:3, pH 6.0/7.4)” value is listed as 2.523.

The same assay, now with this note: light chain variable region mutants; 1:9 dilution.
On to B1, for which the “Affinity ELISA CPE mutant ratio (1:9, pH 6.0/7.4)” value was found to be 2.272.
For the molecule B2, the “Affinity ELISA CPE mutant ratio (1:9, pH 6.0/7.4)” value was determined as 2.200.
On the same count and under the same terms, with B3 the figure was 4.576; with B4, 3.504.
Still for that read-out and setting: with B5 the figure was 2.937; with B6, 2.920; with B7, 2.940.
As for B8, the “Affinity ELISA CPE mutant ratio (1:9, pH 6.0/7.4)” value amounted to 2.599.
Turning to B9, the “Affinity ELISA CPE mutant ratio (1:9, pH 6.0/7.4)” value was found to be 4.758.
With B10, the “Affinity ELISA CPE mutant ratio (1:9, pH 6.0/7.4)” value was 1.999.
On to B11, for which the “Affinity ELISA CPE mutant ratio (1:9, pH 6.0/7.4)” value worked out at 1.569.
Same read-out and setting: with B12 the figure was 1.768; with B13, 2.139.
Still for that read-out and setting: with B15 the figure was 2.403.
Take B16: the “Affinity ELISA CPE mutant ratio (1:9, pH 6.0/7.4)” value stood at 2.630.
The same measure, in the same setting: with B17 the figure was 2.004; with B18, 1.409; with B19, 2.987.
